Patent US20240092889A1 (Chugai, published 2024)
Changes are numbered by the printed parent chain. Names and notes keep the numbering of the source.

T1: recombinant human C1r2s2 tetramer (human, UniProt P09871 16-688; P00736 18-705)
T1 construct: C1s and C1r co-expressed in HEK293/FreeStyle 293-F and purified from conditioned medium
T1 chain 1: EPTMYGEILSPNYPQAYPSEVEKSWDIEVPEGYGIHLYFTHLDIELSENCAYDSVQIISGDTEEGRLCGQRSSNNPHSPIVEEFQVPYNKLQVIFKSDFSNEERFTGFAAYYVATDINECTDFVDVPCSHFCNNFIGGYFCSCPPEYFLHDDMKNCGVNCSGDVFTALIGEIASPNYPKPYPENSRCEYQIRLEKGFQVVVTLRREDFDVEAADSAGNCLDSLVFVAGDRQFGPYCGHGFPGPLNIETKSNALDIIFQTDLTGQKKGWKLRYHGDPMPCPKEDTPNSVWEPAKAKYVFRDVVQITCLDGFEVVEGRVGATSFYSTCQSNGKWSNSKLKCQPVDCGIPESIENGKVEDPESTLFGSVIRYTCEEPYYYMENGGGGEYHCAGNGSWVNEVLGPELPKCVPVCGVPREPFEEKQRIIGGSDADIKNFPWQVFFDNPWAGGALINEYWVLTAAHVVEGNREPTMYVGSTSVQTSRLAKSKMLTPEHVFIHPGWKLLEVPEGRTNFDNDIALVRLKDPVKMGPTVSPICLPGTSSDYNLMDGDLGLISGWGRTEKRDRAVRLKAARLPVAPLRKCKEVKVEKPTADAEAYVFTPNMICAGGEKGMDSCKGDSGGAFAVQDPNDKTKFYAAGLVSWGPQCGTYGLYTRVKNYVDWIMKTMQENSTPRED
T1 chain 2: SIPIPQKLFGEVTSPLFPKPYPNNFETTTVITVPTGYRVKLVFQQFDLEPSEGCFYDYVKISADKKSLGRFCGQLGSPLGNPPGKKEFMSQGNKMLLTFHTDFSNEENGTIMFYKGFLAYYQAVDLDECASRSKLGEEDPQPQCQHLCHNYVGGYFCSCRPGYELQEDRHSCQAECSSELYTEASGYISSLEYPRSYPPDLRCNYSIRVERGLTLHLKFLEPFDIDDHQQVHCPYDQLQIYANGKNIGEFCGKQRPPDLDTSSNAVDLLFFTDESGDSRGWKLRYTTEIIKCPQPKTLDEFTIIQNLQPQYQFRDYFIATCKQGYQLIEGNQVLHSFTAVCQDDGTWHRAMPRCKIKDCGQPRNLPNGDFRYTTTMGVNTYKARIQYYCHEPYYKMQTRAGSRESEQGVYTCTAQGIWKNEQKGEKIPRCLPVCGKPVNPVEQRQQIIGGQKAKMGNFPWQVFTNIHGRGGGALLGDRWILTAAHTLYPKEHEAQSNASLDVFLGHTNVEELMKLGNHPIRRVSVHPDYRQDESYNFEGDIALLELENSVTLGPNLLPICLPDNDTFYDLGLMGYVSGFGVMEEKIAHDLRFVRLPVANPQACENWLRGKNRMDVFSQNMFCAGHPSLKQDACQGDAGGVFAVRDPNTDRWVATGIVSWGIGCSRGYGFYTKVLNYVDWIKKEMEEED

B1: COS0637cc-TT91R (antibody, human IgG1)
heavy: QSLEESGGRLVTPGTPLTLTCTASGFSLSAYAMNWVRQAPGKGLEWIGLIYGSGSTFYASWAKGRFTISKTSTTVDLKMTSLTTEDTATYFCARGRSVNYNSDFKLWGPGTLVTVSSASTKGPSVFPLAPSSKSTSGGTAALGCLVKDYFPEPVTVSWNSGALTSGVHTFPAVLQSSGLYSLSSVVTVPSSSLGTQTYICNVNHKPSNTKVDKRVEPKSCDKTHTCPPCPAPEYLGGDSVFLFPPKPKDVLMISRTPEVTCVVIDVSHEDPEVKFNWYVDGVEVHNAKTKPREEQYNSTYRVVSVLPVLHRDWLNGKEYKCKVSNKALPKPIEKTISKAKGQRREPQVYTLPPSREEMTKNQVSLTCLVKGFYPSDIAVEWESNGQPENNYKTTPPVLDSDGSFFLYSKLTVDKSRWQQGNVFSCSVLHEALHAHTTRKELSLSP
light: QVLTQTPSSVSAAVGGTVTINCQASQSLHDKKNLAWYQHKPGQRPNLLIYGASTLESGVPSRFKGSGSGTEYTLTISDLECDDAAAYYCQGEFSCSSADCNTFGGGTKVEIKRTVAAPSVFIFPPSDEQLKSGTASVVCLLNNFYPREAKVQWKVDNALQSGNSQESVTEQDSKDCTYSLSSTLTLSKADYEKHKVYACEVTHQGLSSPVTKSFNRGEC
notes: Rabbit variable regions (chimera) with modified human IgG1 CH TT91R and modified human CL KOMC; also called COS637cc-TT91R
B2: AL0746 (antibody, human IgG1, kappa, V domains shown)
VH: QVQLVESGGGVVQPGRSLRLSCAASGFTFSAYAMNWIRQPPGKGLEWIGLIYGSGSTFYASWAKGRVTISVDTSKNQFSLKLSSVTAADTAVYYCARGRSVNYNSDFHLWGQGTLVTVSS
VL: DIQMTQSPSSLSASVGDRVTITCQASQSLHDKKNLAWYQQKPGQPPKLLIYGASTLESGVPSRFSGSGSGTDFTLTISSLQPEDFATYYCQGEFSRSSADYNTFGQGTKVEIKR
notes: COS0637temp with VL C94R/C95dY (Kabat), already in the VL entry
B3: COS0637pHv7-TT91R (antibody, V domains shown)
VH: B2 VH with S56H, T57E, K64E, G65E, V101K
VL: B2 VL with S28I, G52Q, T55Q, Q91H, R96Y, Y101L
B4: AL0753 (antibody, human IgG1, kappa, V domains shown)
VH: B2 VH
VL: B2 VL with R96V, Y101V
notes: COS0637temp with VL C94V/C95dV (Kabat), already in the VL entry
B5: COS0637pHv6-TT91R (antibody, V domains shown)
VH: B2 VH with T28S, S56H, T57E, K64E, G65E, V101K, N104V, D106G
VL: B2 VL with S26Q, S28I, K33R, G52Q, T55Q, Q91H, R96Y, S97E, Y101L
B6: COS0637pHv8-TT91R (antibody, V domains shown)
VH: B2 VH with S56H, T57E, K64E, G65E, V101K
VL: B2 VL with S26N, S28I, Q91H, R96Y, Y101L
B7: AL0748 (antibody, human IgG1, kappa, V domains shown)
VH: B2 VH
VL: B2 VL with R96I, Y101F
notes: COS0637temp with VL C94I/C95dF (Kabat), already in the VL entry
B8: AL0749 (antibody, human IgG1, kappa, V domains shown)
VH: B2 VH
VL: B2 VL with R96L, Y101R
notes: COS0637temp with VL C94L/C95dR (Kabat), already in the VL entry
B9: COS0637pHv1-TT91R (antibody, V domains shown)
VH: B2 VH with G55K, K64E, V101K
VL: B2 VL with R96C, Y101C
B10: AL0747 (antibody, human IgG1, kappa, V domains shown)
VH: B2 VH
VL: B2 VL with R96M, Y101R
notes: COS0637temp with VL C94M/C95dR (Kabat), already in the VL entry
B11: AL0750 (antibody, human IgG1, kappa, V domains shown)
VH: B2 VH
VL: B2 VL with R96M, Y101L
notes: COS0637temp with VL C94M/C95dL (Kabat), already in the VL entry
B12: AL0751 (antibody, human IgG1, kappa, V domains shown)
VH: B2 VH
VL: B2 VL with R96A, Y101V
notes: COS0637temp with VL C94A/C95dV (Kabat), already in the VL entry
B13: COS0637pHv4-TT91R (antibody, V domains shown)
VH: B2 VH with T28S, S56H, T57E, K64E, G65E, V101K, N104V, D106G
VL: B2 VL with S28I, G52Q, T55Q, Q91H, R96Y, S97E, Y101L, T103Q
B14: AL0752 (antibody, human IgG1, kappa, V domains shown)
VH: B2 VH
VL: B2 VL with R96V, Y101A
notes: COS0637temp with VL C94V/C95dA (Kabat), already in the VL entry
B15: COS0637pHv9-TT91R (antibody, V domains shown)
VH: B2 VH with S56H, T57E, K64E, G65E, V101K
VL: B2 VL with S26N, S28I, G52Q, T55Q, L56R, Q91H, S95P, R96Y, S97E, Y101L
B16: COS0637h-TT91R (antibody, human IgG1, V domains shown)
VH: B2 VH with H108K
VL: B2 VL with R96C, Y101C
notes: Humanized COS0637cc; modified human IgG1 CH TT91R, human CL SK1
B17: COS0637pHv2-TT91R (antibody, V domains shown)
VH: B2 VH with T28R, S54K, G65E
VL: B2 VL with R96C, Y101C

How the values were obtained:
[1] = molecular target: T1, recombinant human C1r2s2 tetramer; test: SPR (BIACORE T200), 37 C, ratio of KD at pH 5.8 to KD at pH 7.4
Description: (§1) KD (dissociation constant) value of each samples at pH 7.4 and pH 5.8 are determined at 37 degrees C. using BIACORE® T200 instrument (GE Healthcare). Purified Mouse Anti-Human Ig kappa Light Chain (GE Healthcare) can be immobilized onto all flow cells of a CMS sensor chip using an amine coupling kit (GE Healthcare). 20 mM ACES, 150 mM NaCl, 1.2 mM CaCl2, 1 mg/mL BSA (IgG-free), 1 mg/mL CMD, 0.05% Tween® 20, 0.005% NaN3, pH 7.4 or pH 5.8 buffer were used as running buffer. Each antibody can be captured onto the sensor surface by Anti-Human Ig kappa Light chain. Antibody capture levels are aimed at 50 resonance unit (RU). […] Sensor surface is regenerated each cycle with, e.g., Glycine pH 2.0 (GE Healthcare). KD values were obtained using BIACORE® T200 Evaluation software, version 2.0 (GE Healthcare).

[2] = molecular target: T1, recombinant human C1r2s2 tetramer; test: SPR (BIACORE T200), 37 C, Ab captured via anti-human Ig kappa, human C1r2s2 as analyte, pH 5.8
Description: as §1

[3] = molecular target: T1, recombinant human C1r2s2 tetramer; test: SPR (BIACORE T200), 37 C, Ab captured via anti-human Ig kappa, human C1r2s2 as analyte, pH 7.4
Description: as §1

[4] = molecular target: T1, recombinant human C1r2s2 tetramer; test: SPR (BIACORE), antibody captured by ProL, human C1r2s2 injected at 100 nM, pH 7.4, 37 C
Description: Analysis of interaction between antibody variants and the human C1r2s2 prepared as mentioned above was carried out at pH7.4, at 37 degrees C. using BIACORE® T200 instrument (GE Healthcare) or BIACORE® 4000 (GE Healthcare). ProL (BioVision) was immobilized onto a CM4 sensorchip using amine coupling kit (GE Healthcare) according to the recommended settings by GE Healthcare. Antibodies and analytes were diluted into the respective running buffers, ACES pH7.4 (20 mM ACES (N-(2-Acetamido)-2-aminoethanesulfonic acid), 150 mM NaCl, 1.2 mM CaCl2, 1 mg/ml bovine serum albumin (BSA), 1 mg/ml CMD (CM-Dextran sodium salt), 0.05% Tween® 20 (polysorbate 20), 0.005 w/v % NaN3). Each antibody was captured onto the sensor surface by ProL. Antibody capture levels were aimed at 200 resonance units (RU). Then, recombinant human C1r2s2 was injected at concentrations of 25 and 100 nM followed by dissociation at pH7.4. The surface was regenerated using 10 mM Glycine-HCl, pH1.5.

Binder	KD (pH 5.8)/KD (pH 7.4) [1]	Kd [2]	Kd [3]	binding result [4]
B1	10	0.0433 µM	0.00448 µM	
B2				no binding (tested: 100 nM)
B3	72	0.353 µM	0.0049 µM	
B4				no binding (tested: 100 nM)
B5	100	0.838 µM	0.00839 µM	
B6	117	0.874 µM	0.00746 µM	
B7				no binding (tested: 100 nM)
B8				no binding (tested: 100 nM)
B9	209	3.6 µM	0.0172 µM	
B10				no binding (tested: 100 nM)
B11				no binding (tested: 100 nM)
B12				no binding (tested: 100 nM)
B13	99	0.811 µM	0.00823 µM	
B14				no binding (tested: 100 nM)
B15	45	0.157 µM	0.00348 µM	
B16	14	0.362 µM	0.0254 µM	
B17	44	0.588 µM	0.0134 µM	
